Laboratory results published in paper PMC10439028, “SGLT5 is the renal transporter for 1,5-anhydroglucitol, a major player in two rare forms of neutropenia” (Cellular and Molecular Life Sciences: CMLS, 2023).

Key:
[1] = substrate: OC[C@H]1OC(O)[C@@H](O)[C@@H](O)[C@@H]1O; experiment: Radioactive uptake assay (saturation kinetics) in HEK293T cells stably overexpressing human SGLT5-iso2; format: cell-based; settings: other: transport of the labelled substrate, Michaelis-Menten fit, Fig. 2B; pH 7.4; 37.0 °C
Description: (§1) This assay was used to study (1) the transport of 1,5-AG or mannose by the HEK293T model cell lines that stably overexpressed the various transporters or by the transiently transfected HEK293T cells using JetPEI® as a transfection agent prepared as described above and (2) the substrate specificity of each transporter.
(§2) For a typical transporter experiment we proceeded as follows. […] To minimize cell loss during the various washing steps in the radioactive uptake experiments, the wells where the cells were seeded were previously coated with poly- D-lysine, which improved their adhesion to the plastic surface of the wells. For this, each well of the 24-well plates was treated with 200 µl of a 0.01% poly-L-lysine solution for 10 min, washed 3 times with 1 ml of sterilized water and left to dry for 2 h. Only then could the 24-well plates be seeded with the appropriate cell lines and cultured overnight at 37 °C in 5% CO2.
(§3) On day two, the radioactive uptake assay could be performed. The cell culture media was removed by aspiration and cells were incubated for 20 min at 37 °C and 5% CO2 with a basal medium (10 mM HEPES, pH 7.4, 1 mM CaCl2, 1 mM MgCl2, 2 mM KCl) containing 140 mM choline chloride to deplete intracellular […] ions. This was subsequently replaced with the uptake medium (basal medium + 140 mM NaCl, 25 μM cytochalasin B, 1 mg/ml BSA) containing either radioactive U-[^14C]-mannose (15,000 cpm/well) or 2-[^3H]-1,5-AG (30,000 cpm/well) and respectively, non-radioactive mannose or 1,5-AG, at the required concentration in the experiment. […]
(§4) Once the uptake medium was added to the cells, the plates were incubated at 37 °C in 5% CO2 during the required time. […] In each experiment, the transport activities were calculated after subtracting a “blank” value, corresponding to the radioactivity in the appropriate control cells (HEK293T cells that were stably or transiently transfected with one of the parent plasmids pEF6/MycHisA, pEF6HisB, pUB82 or pUB83 with no inserted cDNA) that were analyzed in parallel.

[2] = substrate: OC[C@H]1OC[C@H](O)[C@@H](O)[C@@H]1O; experiment: as above; format: cell-based; settings: pH 7.4, 37.0 °C
Description: as §1, §2, §3, §4

[3] = substrate: OC[C@H]1OC[C@H](O)[C@@H](O)[C@@H]1O; experiment: 1,5-AG uptake in HEK293T cells overexpressing SGLT5 variant Asn96Ile; format: cell-based, human; settings: other: variant Asn96Ile (rs148178887); pH 7.4; 37.0 °C
Procedure: as §2
(§5) On day two, the radioactive uptake assay could be performed. The cell culture media was removed by aspiration and cells were incubated for 20 min at 37 °C and 5% CO2 with a basal medium (10 mM HEPES, pH 7.4, 1 mM CaCl2, 1 mM MgCl2, 2 mM KCl) containing 140 mM choline chloride to deplete intracellular Na^2+ ions. […]
(§6) Once the uptake medium was added to the cells, the plates were incubated at 37 °C in 5% CO2 during the required time. […] In each experiment, the transport activities were calculated after subtracting a “blank” value, corresponding to the radioactivity in the appropriate control cells (HEK293T cells that were stably or transiently transfected with one of the parent plasmids pEF6/MycHisA, pEF6HisB, pUB82 or pUB83 with no inserted cDNA) that were analyzed in parallel. […]

[4] = substrate: OC[C@H]1OC[C@H](O)[C@@H](O)[C@@H]1O; experiment: 1,5-AG uptake in HEK293T cells overexpressing SGLT5 variant Arg401His; format: cell-based, human; settings: other: variant Arg401His (rs754390288); pH 7.4; 37.0 °C
Procedure: as §2, §5, §6

[5] = substrate: OC[C@H]1OC(O)[C@@H](O)[C@@H](O)[C@@H]1O; experiment: Radioactive uptake assay (saturation kinetics) in HEK293T cells stably overexpressing human SGLT4; format: cell-based; settings: other: transport of the labelled substrate, Fig. 2B; pH 7.4; 37.0 °C
Description: as §1
as §2, with “CO2. […]” for “CO2.”
as §4

[6] = substrate: OC[C@H]1OC(O)[C@@H](O)[C@@H](O)[C@@H]1O; experiment: Radioactive uptake assay (saturation kinetics) in HEK293T cells expressing mouse SGLT4; format: cell-based; settings: other: 30 min, Supplementary Fig. 4; pH 7.4; 37.0 °C
Procedure: as §2
On day two, the radioactive uptake assay could be performed. […]
as §6
Supplementary Fig. 4: Transport activities for 1,5-anhydroglucitol and mannose of recombinant mouse SGLT4 and SGLT5 isoforms measured in HEK293T cells. […]

B1: human SGLT5 (Homo sapiens) (protein)
chain: MAANSTSDLHTPGTQLSVADIIVITVYFALNVAVGIWSSCRASRNTVNGYFLAGRDMTWWPIGASLFASSEGSGLFIGLAGSGAAGGLAVAGFEWNATYVLLALAWVFVPIYISSEIVTLPEYIQKRYGGQRIRMYLSVLSLLLSVFTKISLDLYAGALFVHICLGWNFYLSTILTLGITALYTIAGGLAAVIYTDALQTLIMVVGAVILTIKAFDQIGGYGQLEAAYAQAIPSRTIANTTCHLPRTDAMHMFRDPHTGDLPWTGMTFGLTIMATWYWCTDQVIVQRSLSARDLNHAKAGSILASYLKMLPMGLIIMPGMISRALFPDDVGCVVPSECLRACGAEVGCSNIAYPKLVMELMPIGLRGLMIAVMLAALMSSLTSIFNSSSTLFTMDIWRRLRPRSGERELLLVGRLVIVALIGVSVAWIPVLQDSNSGQLFIYMQSVTSSLAPPVTAVFVLGVFWRRANEQGAFWGLIAGLVVGATRLVLEFLNPAPPCGEPDTRPAVLGSIHYLHFAVALFALSGAVVVAGSLLTPPPQSVQIENLTWWTLAQDVPLGTKAGDGQTPQKHAFWARVCGFNAILLMCVNIFFYAYFA
notes: expressed in transfected cells
B1 showed a Km [1] of 1729 ± 568 µM, a Km ([2]; other: hSGLT5 WT, Table 1 experiments) of 226 ± 7 µM and a Km ([2]; other: transport of the labelled substrate, Michaelis-Menten fit, Fig. 2B) of 167 µM.

B2: hSGLT5 Asn96Ile (Homo sapiens; N96I) (protein)
chain: MAANSTSDLHTPGTQLSVADIIVITVYFALNVAVGIWSSCRASRNTVNGYFLAGRDMTWWPIGASLFASSEGSGLFIGLAGSGAAGGLAVAGFEWIATYVLLALAWVFVPIYISSEIVTLPEYIQKRYGGQRIRMYLSVLSLLLSVFTKISLDLYAGALFVHICLGWNFYLSTILTLGITALYTIAGGLAAVIYTDALQTLIMVVGAVILTIKAFDQIGGYGQLEAAYAQAIPSRTIANTTCHLPRTDAMHMFRDPHTGDLPWTGMTFGLTIMATWYWCTDQVIVQRSLSARDLNHAKAGSILASYLKMLPMGLIIMPGMISRALFPDDVGCVVPSECLRACGAEVGCSNIAYPKLVMELMPIGLRGLMIAVMLAALMSSLTSIFNSSSTLFTMDIWRRLRPRSGERELLLVGRLVIVALIGVSVAWIPVLQDSNSGQLFIYMQSVTSSLAPPVTAVFVLGVFWRRANEQGAFWGLIAGLVVGATRLVLEFLNPAPPCGEPDTRPAVLGSIHYLHFAVALFALSGAVVVAGSLLTPPPQSVQIENLTWWTLAQDVPLGTKAGDGQTPQKHAFWARVCGFNAILLMCVNIFFYAYFA
notes: pUB83-hSGLT5-iso2 as well as the various SGLT5 mutants obtained were used to transduce HEK293T cells; expressed in transfected cells; host or cells: HEK293T, lentiviral transduction (pUB83)
Work on B2 yielded a Km [3] of 1565 ± 302 µM.

B3: hSGLT5 Arg401His (Homo sapiens; R401H) (protein)
chain: MAANSTSDLHTPGTQLSVADIIVITVYFALNVAVGIWSSCRASRNTVNGYFLAGRDMTWWPIGASLFASSEGSGLFIGLAGSGAAGGLAVAGFEWNATYVLLALAWVFVPIYISSEIVTLPEYIQKRYGGQRIRMYLSVLSLLLSVFTKISLDLYAGALFVHICLGWNFYLSTILTLGITALYTIAGGLAAVIYTDALQTLIMVVGAVILTIKAFDQIGGYGQLEAAYAQAIPSRTIANTTCHLPRTDAMHMFRDPHTGDLPWTGMTFGLTIMATWYWCTDQVIVQRSLSARDLNHAKAGSILASYLKMLPMGLIIMPGMISRALFPDDVGCVVPSECLRACGAEVGCSNIAYPKLVMELMPIGLRGLMIAVMLAALMSSLTSIFNSSSTLFTMDIWRRLHPRSGERELLLVGRLVIVALIGVSVAWIPVLQDSNSGQLFIYMQSVTSSLAPPVTAVFVLGVFWRRANEQGAFWGLIAGLVVGATRLVLEFLNPAPPCGEPDTRPAVLGSIHYLHFAVALFALSGAVVVAGSLLTPPPQSVQIENLTWWTLAQDVPLGTKAGDGQTPQKHAFWARVCGFNAILLMCVNIFFYAYFA
notes: as for B2
For B3, the Km [4] was 331 ± 13 µM.

B4: human SGLT4 (Homo sapiens) (protein)
chain: MSKELAAMGPGASGDGVRTETAPHIALDSRVGLHAYDISVVVIYFVFVIAVGIWSSIRASRGTIGGYFLAGRSMSWWPIGASLMSSNVGSGLFIGLAGTGAAGGLAVGGFEWNATWLLLALGWVFVPVYIAAGVVTMPQYLKKRFGGQRIQVYMSVLSLILYIFTKISTDIFSGALFIQMALGWNLYLSTGILLVVTAVYTIAGGLMAVIYTDALQTVIMVGGALVLMFLGFQDVGWYPGLEQRYRQAIPNVTVPNTTCHLPRPDAFHILRDPVSGDIPWPGLIFGLTVLATWCWCTDQVIVQRSLSAKSLSHAKGGSVLGGYLKILPMFFIVMPGMISRALFPDEVGCVDPDVCQRICGARVGCSNIAYPKLVMALMPVGLRGLMIAVIMAALMSSLTSIFNSSSTLFTIDVWQRFRRKSTEQELMVVGRVFVVFLVVISILWIPIIQSSNSGQLFDYIQAVTSYLAPPITALFLLAIFCKRVTEPGAFWGLVFGLGVGLLRMILEFSYPAPACGEVDRRPAVLKDFHYLYFAILLCGLTAIVIVIVSLCTTPIPEEQLTRLTWWTRNCPLSELEKEAHESTPEISERPAGECPAGGGAAENSSLGQEQPEAPSRSWGKLLWSWFCGLSGTPEQALSPAEKAALEQKLTSIEEEPLWRHVCNINAVLLLAINIFLWGYFA
notes: as for B1
With B4 the Km [5] was 81 ± 8 µM.

B5: mouse SGLT4 (Mus musculus) (protein)
chain: MNTELVAMEPGVSRNGVRTETTTNPSLGLHTYDIVVVVIYFVFVLAVGIWSSIRASRGTVGGYFLAGRSMTWWPIGASLMSSNVGSGLFIGLAGTGAAGGLAVGGFEWNATFLLLALGWIFVPVYIAAGVVTMPQYLKKRFGGQRIQVYMSVLSLILYIFTKISTDIFSGALFIQMALGWNLYLSTVILLVVTAVYTIAGGLTAVIYTDALQTVIMVGGALVLMFLGFQEVGWYPGLQQLYRQAIPNTTVPNTTCHLPRPDAFHMLRDPVNGDIPWPGLIFGLTVLATWCWCTDQVIVQRSLAAKNLSHAKGGSVLGGYLKILPMFFIVMPGMISRALYPDEVACVDPDICQRVCGARVGCSNIAYPKLVMALMPVGLRGLMIAVIMAALMSSLTSIFNSSSTLFAIDVWQRFRRQASEQELMVVGRLFVVFLVVISILWIPIIQSSNSGQLFDYIQSITSYLAPPITALFLLAIFCKRVNEPGAFWGLMFGLVVGILRMILEFSYSAPACGEMDRRPAVLKDFHYLYFALLLCGLTAIIIVVISFFTEPIPDDKLARLTWWTRNCAVSDLQKKTSVSVNNTEDDNSPGLAGRPVVEGPAGDEEEANTTQGPEQPGALHRSWGKWLWNWFCGLSGAPQQALSPAEKAVLEQKLTSIEEEPLWRRVCNINAIILLAINIFLWGYFA
notes: expressed in transfected cells; host or cells: HEK293T
With B5 the Km [6] was 0.2 mM.
